These results are taken from PMC9932118.

By Kd is commonly meant the equilibrium constant for the complex coming apart. A low value points to tighter binding.

Data set [1] has as its target T1, ZBTB7A ZF1-4 short fragment (Homo sapiens, UniProt O95365 370-500). The experiment in a line: X-ray crystallography.
For data set [2], the target named is T1, ZBTB7A ZF1-4 short fragment. Kind of data set: X-ray crystallography. This is another data set of the same source.
Data set [3] has the same target. Kind of data set: X-ray crystallography. The source holds these as a separate data set.
For data set [4], the target named is T2, ZBTB7A long fragment (Homo sapiens, UniProt O95365 341-505). The experiment in a line: FP.
For data set [5], the target named is T1, ZBTB7A ZF1-4 short fragment. Kind of data set: FP.
Data set [6] has the same target. Kind of data set: X-ray crystallography. This is another data set of the same source.
Data set [7] has as its target T2, ZBTB7A long fragment. Kind of data set: X-ray crystallography.

Read-outs that look alike come from different tables or passages of the source.

T1 sequence (O95365 370-500): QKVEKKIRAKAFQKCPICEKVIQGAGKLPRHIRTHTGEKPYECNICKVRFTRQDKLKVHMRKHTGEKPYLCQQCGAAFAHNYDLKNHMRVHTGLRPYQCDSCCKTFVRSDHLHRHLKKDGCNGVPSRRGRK
T2 sequence (O95365 341-505): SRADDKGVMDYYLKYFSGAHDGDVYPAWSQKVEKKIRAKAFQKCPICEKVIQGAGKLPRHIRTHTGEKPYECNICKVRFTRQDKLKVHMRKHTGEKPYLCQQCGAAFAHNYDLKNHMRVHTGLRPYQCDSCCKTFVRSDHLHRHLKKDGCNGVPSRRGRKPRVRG

B1: GaCCC crystal DNA 7N5U (dsDNA)
DNA 1: GGGACCCTTGATGTTT
DNA 2: CAAACATCAAGGGTCC
Take B1: the binding result in data set [1] was “binds”.

B2: GaCCC crystal DNA 7N5W (dsDNA)
DNA 1: GGGACCCTTCATGTTT
DNA 2: CAAACATGAAGGGTCC
Consider B2, for which the binding result in data set [2] is “binds”.

B3: GaCCC crystal DNA 7N5V (dsDNA)
DNA 1: GGGACCCTTGATGTTT
DNA 2: AAACATCAAGGGTCCC
For the molecule B3, in data set [3], the binding result is “binds”.

B4: oligo #6 CAST 16 bp (dsDNA)
DNA 1: AAGACCCCTCCCCGAA
DNA 2: TTCGGGGAGGGGTCTT
Consider B4, for which the Kd (with ZBTB7A long fragment [4]; in data set [5]) was around 80 nM throughout.

B5: CAST crystal DNA 8E3D (dsDNA)
DNA 1: GGTAAAAGACCCCTCCCCAAAT
DNA 2: ATTTGGGGAGGGGTCTTTTACC
With B5, the binding result in data set [6] was “binds”.

B6: CAST crystal DNA 8E3E (dsDNA)
DNA 1: GGTAAAAGACCCCTCCCCAAA
DNA 2: CTTTGGGGAGGGGTCTTTTAC
With B6, the binding result with ZBTB7A long fragment [7] is recorded as “binds”.
